The text below walks through data of US20260232830A1 (JIANGSU HENGRUI PHARMACEUTICALS, published 2026).

The test addresses T1, human EGFR-His antigen (human, UniProt P00533 25-645).
T1 construct: also called hEGFR-His
Kind of test: SPR Biacore 8K, antibody on Protein A chip, 1:1 fit.

B1: ZalH2 (antibody, human IgG1, kappa, V domains shown)
VH: QVQLVESGGGVVQPGRSLRLSCAASGFTFSTYGMHWVRQAPGKGLEWVAVIWEDGSYKYYGDSVKGRFTISRDNSKNTLYLQMNSLRAEDTAVYYCARDGITMVRGVMKDYFDYWGQGTLVTVSS
VL: DIQLTQSPSSLSASVGDRVTITCRASQDISSALVWYQQKPGKAPKLLIYDASSLESGVPSRFSGSESGTDFTLTISSLQPEDFATYYCQQFNSYPLTFGGGTKVEIKR
notes: anti-EGFR zalutumumab variant, human IgG1
The molecule B1 yielded a dissociation constant (Kd) of 92.9 nM, an off-rate constant (koff) of 0.00812 s⁻¹ and a kon of 87400 M⁻¹ s⁻¹.

B2: ZalH10 (antibody, human IgG1, kappa, V domains shown)
VH: QVQLVESGGGVVQPGRSLRLSCAASGFTFSSYGMHWVRQAPGKGLEWVAVIWDDGSYKYYGDSVKGRFTISRDNSKNTLYLQMNSLRAEDTAVYYCARDGATMVRGVMKDYFDYWGQGTLVTVSS
VL: DIQLTQSPSSLSASVGDRVTITCRASQDISSALVWYQQKPGKAPKLLIYDASSLESGVPSRFSGSESGTDFTLTISSLQPEDFATYYCQQFNSYPLTFGGGTKVEIKR
notes: as for B1
For the molecule B2, the Kd was 133 nM, the off-rate (koff) amounted to 0.0174 s⁻¹ and the kon stood at 131000 M⁻¹ s⁻¹.

B3: ZalH9 (antibody, human IgG1, kappa, V domains shown)
VH: QVQLVESGGGVVQPGRSLRLSCAASGFTFSSYGMHWVRQAPGKGLEWVAVIWDDGSYKYYGDSVKGRFTISRDNSKNTLYLQMNSLRAEDTAVYYCARDGVTMVRGVMKDYFDYWGQGTLVTVSS
VL: DIQLTQSPSSLSASVGDRVTITCRASQDISSALVWYQQKPGKAPKLLIYDASSLESGVPSRFSGSESGTDFTLTISSLQPEDFATYYCQQFNSYPLTFGGGTKVEIKR
notes: as for B1
In turn, B3 displayed a dissociation constant (Kd) of 51.6 nM, an off-rate (koff) of 0.00234 s⁻¹ and a kon of 45400 M⁻¹ s⁻¹.

B4: ZalH3 (antibody, human IgG1, kappa, V domains shown)
VH: QVQLVESGGGVVQPGRSLRLSCAASGFTFSTYGMHWVRQAPGKGLEWVAVIWDDGSYKYYGDSVKGRFTISRDNSKNTLYLQMNSLRAEDTAVYYCARDGLTMVRGVMKDYFDYWGQGTLVTVSS
VL: DIQLTQSPSSLSASVGDRVTITCRASQDISSALVWYQQKPGKAPKLLIYDASSLESGVPSRFSGSESGTDFTLTISSLQPEDFATYYCQQFNSYPLTFGGGTKVEIKR
notes: as for B1
B4: the Kd is 302 nM, the koff is 0.0243 s⁻¹ and the kon came to 80500 M⁻¹ s⁻¹.

B5: ZalH5 (antibody, human IgG1, kappa, V domains shown)
VH: QVQLVESGGGVVQPGRSLRLSCAASGFTFSTYGMHWVRQAPGKGLEWVAVIWDDGSYKYYGDSVKGRFTISRDNSKNTLYLQMNSLRAEDTAVYYCARDGATMVRGVMKDYFDYWGQGTLVTVSS
VL: DIQLTQSPSSLSASVGDRVTITCRASQDISSALVWYQQKPGKAPKLLIYDASSLESGVPSRFSGSESGTDFTLTISSLQPEDFATYYCQQFNSYPLTFGGGTKVEIKR
notes: as for B1
With B5, the Kd worked out at 96.4 nM, the koff was 0.0125 s⁻¹ and the kon was found to be 129000 M⁻¹ s⁻¹.

B6: ZalH8 (antibody, human IgG1, kappa, V domains shown)
VH: QVQLVESGGGVVQPGRSLRLSCAASGFTFSSYGMHWVRQAPGKGLEWVAVIWDDGSYKYYGDSVKGRFTISRDNSKNTLYLQMNSLRAEDTAVYYCARDGLTMVRGVMKDYFDYWGQGTLVTVSS
VL: DIQLTQSPSSLSASVGDRVTITCRASQDISSALVWYQQKPGKAPKLLIYDASSLESGVPSRFSGSESGTDFTLTISSLQPEDFATYYCQQFNSYPLTFGGGTKVEIKR
notes: as for B1
B6 had a dissociation constant Kd of 483 nM, a koff of 0.0369 s⁻¹ and an on-rate constant (kon) of 76500 M⁻¹ s⁻¹.

B7: ZalH7 (antibody, human IgG1, kappa, V domains shown)
VH: QVQLVESGGGVVQPGRSLRLSCAASGFTFSSYGMHWVRQAPGKGLEWVAVIWEDGSYKYYGDSVKGRFTISRDNSKNTLYLQMNSLRAEDTAVYYCARDGITMVRGVMKDYFDYWGQGTLVTVSS
VL: DIQLTQSPSSLSASVGDRVTITCRASQDISSALVWYQQKPGKAPKLLIYDASSLESGVPSRFSGSESGTDFTLTISSLQPEDFATYYCQQFNSYPLTFGGGTKVEIKR
notes: as for B1
For the molecule B7, binding was characterised by a dissociation constant (Kd) of 95.7 nM, the koff came to 0.00761 s⁻¹ and the kon was 79500 M⁻¹ s⁻¹.
